Molecular target: Fc-tagged receptor-binding domain (RBD) of the SARS-CoV-2 spike (S) protein (SARS-CoV-2) (UniProt P0DTC2)
Assay: BLI; Octet Red96e; Fc-tagged RBD loaded onto the biosensor (streptavidin biosensors as printed), Fab in solution; 1x PBS pH 7.4, 0.01% w/v BSA, 0.002% v/v Tween 20; 60 s association, 60 s dissociation; 1:1 binding model

| Substance | Kd [µM] |
| --- | --- |
| COV107-23 heavy chain paired with the light chain of COVD21-C8 (Fab) | > 1 |
| COVD21-C8 heavy chain paired with the light chain of COV107-23 (Fab) | > 1 |

Reference: doi:10.1101/2021.01.26.428356
